The record followed here is US20140220634A1 (Janssen / Centocor, published 2014).

Where a chain is given by its changes, count along the chain named.

B1: Fab323-G1 (Fab, V domains shown)
VH: EVQLLESGGGLVQPGGSLRLSCAASGFTFSDYWMSWVRQAPGKGLEWVSGIWGSGSSTYYADSVKGRFTISRDNSKNTLYLQMNSLRAEDTAVYYCAKHWGRGGDLDYWGQGTLVTVSS
VL: EIVLTQSPATLSLSPGERATLSCRASQSVSSYLAWYQQKPGQAPRLLIYDASNRATGIPARFSGSGSGTDFTLTISSLEPEDFAVYYCQQRSNWPLTFGQGTKVEIK
notes: Human Fab from a pIX phage library, made in E. coli; kappa light chain (germline L6 scaffold); also called CNTO 3631
B2: Fab169-31 (Fab, V domains shown)
VH: QVQLVQSGAEVKKPGSSVKVSCKASGGTFSSYAISWVRQAPGQGLEWMGGIIPIFGTANYAQKFQGRVTITADESTSTAYMELSSLRSEDTAVYYCARHLYYMLDYWGQGTLVTVSS
VL: B1 VL with S30A, S31D, Y32W, R91Y, S92D, N93G, L96I
notes: Human Fab from a pIX phage library, made in E. coli; kappa light chain; also called CNTO 4093
B3: Fab551-3 (Fab, V domains shown)
VH: EVQLVQSGAEVKKPGESLKISCKGSGYSFTSYWIGWVRQMPGKGLEWMGIIYPGDSDTRYSPSFQGQVTISADKSISTAYLQWSSLKASDTAMYYCARGLFWFFDYWGQGTLVTVSS
VL: B1 VL with S30D, Y32W, R91F, S92D, N93T, L96I
notes: Human Fab from a pIX phage library, made in E. coli; kappa light chain
B4: Fab323-B3 (Fab, V domains shown)
VH: EVQLLESGGGLVQPGGSLRLSCAASGFTFSSYAMSWVRQAPGKGLEWVSAIRYDGSSKYYADSVKGRFTISRDNSKNTLYLQMNSLRAEDTAVYYCAKNLKILDYWGQGTLVTVSS
VL: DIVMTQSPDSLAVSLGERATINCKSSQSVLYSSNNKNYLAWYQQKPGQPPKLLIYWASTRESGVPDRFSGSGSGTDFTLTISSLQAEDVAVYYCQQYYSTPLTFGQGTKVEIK
notes: Human Fab from a pIX phage library, made in E. coli; kappa light chain (germline B3 scaffold); also called VH323-B3/VLB3
B5: Fab169-G11 (Fab, V domains shown)
VH: QVQLVQSGAEVKKPGSSVKVSCKASGGTFSSYAISWVRQAPGQGLEWMGGIIPIFGTANYAQKFQGRVTITADESTSTAYMELSSLRSEDTAVYYCARDGYDIVLGIFDYWGQGTLVTVSS
VL: B1 VL
notes: Human Fab from a pIX phage library, made in E. coli; kappa light chain (germline L6 scaffold); also called VH169-G11/VLL6
B6: Fab169-64 (Fab, V domains shown)
VH: QVQLVQSGAEVKKPGSSVKVSCKASGGTFSSYAISWVRQAPGQGLEWMGGIIPIFGTANYAQKFQGRVTITADESTSTAYMELSSLRSEDTAVYYCARNIVGDYLLDYWGQGTLVTVSS
VL: B1 VL with S30D, S31D, Y32W, R91G, S92D, N93T, W94A, L96I
notes: Human Fab from a pIX phage library, made in E. coli; kappa light chain; also called VH169-64/VL169-64
B7: Fab169-47 (Fab, V domains shown)
VH: QVQLVQSGAEVKKPGSSVKVSCKASGGTFSSYAISWVRQAPGQGLEWMGGIIPIFGTANYAQKFQGRVTITADESTSTAYMELSSLRSEDTAVYYCARTSPSFDYWGQGTLVTVSS
VL: B1 VL with S30R, S31D, Y32F, D50Y, R91G, S92F, N93H, L96F
notes: Human Fab from a pIX phage library, made in E. coli; kappa light chain; also called VH169-47/VL169-47
B8: Fab169-C2 (Fab, V domains shown)
VH: QVQLVQSGAEVKKPGSSVKVSCKASGGTFSSYAISWVRQAPGQGLEWMGGIIPIFGTANYAQKFQGRVTITADESTSTAYMELSSLRSEDTAVYYCARHWRLNYWGQGTLVTVSS
VL: B1 VL
notes: Human Fab from a pIX phage library, made in E. coli; kappa light chain (germline L6 scaffold); also called VH169-C2/VLL6
B9: Fab 169-76 (Fab, V domains shown)
VH: B7 VH with A33G, I54Y, T99P, S100T, P101N, S102V, F103L
VL: B1 VL with S30R, S31K, Y32F, R91S, S92N, L96F
notes: Human Fab from a pIX phage library, made in E. coli; kappa light chain (detected with anti-kappa-HRP); also called VH169-76/VL169-76
B10: Fab323-G9 (Fab, V domains shown)
VH: EVQLLESGGGLVQPGGSLRLSCAASGFTFSSYWMHWVRQAPGKGLEWVSAISGSGGSTYYADSVKGRFTISRDNSKNTLYLQMNSLRAEDTAVYYCAKYLRWGSYGILDYWGQGTLVTVSS
VL: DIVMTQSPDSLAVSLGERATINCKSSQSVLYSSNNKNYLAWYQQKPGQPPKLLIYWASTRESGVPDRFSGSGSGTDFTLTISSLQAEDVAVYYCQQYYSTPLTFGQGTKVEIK
notes: Human Fab from a pIX phage library, made in E. coli; kappa light chain (germline B3 scaffold); also called VH323-G9/VLB3
B11: Fab169-34 (Fab, V domains shown)
VH: QVQLVQSGAEVKKPGSSVKVSCKASGGTFSSYAISWVRQAPGQGLEWMGGIIPIFGTANYAQKFQGRVTITADESTSTAYMELSSLRSEDTAVYYCAREGPASWDNWALDYWGQGTLVTVSS
VL: B1 VL with S31D, Y32W, D50Y, R91S, N93T, W94A, L96I
notes: Human Fab from a pIX phage library, made in E. coli; kappa light chain; also called VH169-34/VL169-34
B12: Fab169-45 (Fab, V domains shown)
VH: B7 VH with T99R, S100L, P101G, S102L
VL: B1 VL with S30D, Y32A, R91Y, S92D, N93R
notes: Human Fab from a pIX phage library, made in E. coli; kappa light chain; also called VH169-45/VL169-45

T1 sequence (P02458 182-1241 limits assumed): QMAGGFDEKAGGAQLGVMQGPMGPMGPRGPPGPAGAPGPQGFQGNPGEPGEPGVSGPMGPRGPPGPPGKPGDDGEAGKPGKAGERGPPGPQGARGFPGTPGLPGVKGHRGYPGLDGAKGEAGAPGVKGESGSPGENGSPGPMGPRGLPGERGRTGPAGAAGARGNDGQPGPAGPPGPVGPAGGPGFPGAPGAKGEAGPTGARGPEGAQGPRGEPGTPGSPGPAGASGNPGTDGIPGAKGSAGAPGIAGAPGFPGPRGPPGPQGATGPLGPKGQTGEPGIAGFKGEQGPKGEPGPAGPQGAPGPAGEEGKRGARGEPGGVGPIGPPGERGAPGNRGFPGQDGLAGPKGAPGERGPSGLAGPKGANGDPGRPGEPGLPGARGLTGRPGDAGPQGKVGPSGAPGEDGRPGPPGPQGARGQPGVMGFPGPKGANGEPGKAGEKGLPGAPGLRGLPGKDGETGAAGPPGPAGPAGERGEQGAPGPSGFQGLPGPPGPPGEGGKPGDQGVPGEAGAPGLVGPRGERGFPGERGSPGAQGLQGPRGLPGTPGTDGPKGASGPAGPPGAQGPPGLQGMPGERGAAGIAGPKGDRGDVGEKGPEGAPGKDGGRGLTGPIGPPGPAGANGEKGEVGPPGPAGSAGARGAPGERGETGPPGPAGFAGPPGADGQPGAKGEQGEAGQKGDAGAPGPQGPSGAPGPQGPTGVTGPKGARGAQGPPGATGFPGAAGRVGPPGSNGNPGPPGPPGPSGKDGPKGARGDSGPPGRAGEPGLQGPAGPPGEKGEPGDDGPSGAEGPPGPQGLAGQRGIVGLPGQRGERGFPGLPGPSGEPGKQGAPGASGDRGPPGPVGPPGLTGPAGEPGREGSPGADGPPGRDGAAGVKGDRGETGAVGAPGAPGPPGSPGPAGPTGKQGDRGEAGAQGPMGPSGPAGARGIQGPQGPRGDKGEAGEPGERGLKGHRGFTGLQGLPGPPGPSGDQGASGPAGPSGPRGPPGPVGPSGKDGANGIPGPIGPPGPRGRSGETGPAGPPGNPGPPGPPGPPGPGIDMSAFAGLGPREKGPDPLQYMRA
T3 sequence (P02454 152-1207, chain 1 of 2): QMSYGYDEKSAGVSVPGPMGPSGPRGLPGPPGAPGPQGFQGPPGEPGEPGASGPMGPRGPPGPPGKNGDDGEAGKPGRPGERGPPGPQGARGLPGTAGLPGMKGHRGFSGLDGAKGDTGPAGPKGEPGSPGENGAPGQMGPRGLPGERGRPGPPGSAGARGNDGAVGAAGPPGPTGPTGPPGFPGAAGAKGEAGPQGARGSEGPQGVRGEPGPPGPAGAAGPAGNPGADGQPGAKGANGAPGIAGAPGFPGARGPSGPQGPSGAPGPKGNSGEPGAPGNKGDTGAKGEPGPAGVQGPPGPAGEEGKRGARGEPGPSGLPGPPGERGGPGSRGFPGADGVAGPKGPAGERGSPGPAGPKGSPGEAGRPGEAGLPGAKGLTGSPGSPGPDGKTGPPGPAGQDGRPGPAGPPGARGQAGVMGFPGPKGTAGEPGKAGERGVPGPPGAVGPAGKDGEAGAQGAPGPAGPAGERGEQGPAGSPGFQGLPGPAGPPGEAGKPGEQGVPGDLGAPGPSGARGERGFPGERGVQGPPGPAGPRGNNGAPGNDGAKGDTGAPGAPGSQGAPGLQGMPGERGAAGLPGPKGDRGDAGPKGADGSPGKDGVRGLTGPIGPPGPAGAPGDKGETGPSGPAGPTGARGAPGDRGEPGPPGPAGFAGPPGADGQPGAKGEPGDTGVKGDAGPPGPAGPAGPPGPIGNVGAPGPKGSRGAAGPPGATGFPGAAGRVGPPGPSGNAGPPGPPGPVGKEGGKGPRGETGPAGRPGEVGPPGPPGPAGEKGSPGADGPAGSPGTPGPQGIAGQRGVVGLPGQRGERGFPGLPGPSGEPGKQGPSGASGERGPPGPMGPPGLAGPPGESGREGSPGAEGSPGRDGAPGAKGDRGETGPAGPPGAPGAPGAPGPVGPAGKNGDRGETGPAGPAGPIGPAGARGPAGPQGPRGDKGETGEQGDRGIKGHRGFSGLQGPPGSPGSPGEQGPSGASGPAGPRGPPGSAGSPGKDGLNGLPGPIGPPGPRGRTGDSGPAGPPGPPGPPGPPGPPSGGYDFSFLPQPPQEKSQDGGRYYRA
T3 sequence (P02466 86-1125, chain 2 of 2): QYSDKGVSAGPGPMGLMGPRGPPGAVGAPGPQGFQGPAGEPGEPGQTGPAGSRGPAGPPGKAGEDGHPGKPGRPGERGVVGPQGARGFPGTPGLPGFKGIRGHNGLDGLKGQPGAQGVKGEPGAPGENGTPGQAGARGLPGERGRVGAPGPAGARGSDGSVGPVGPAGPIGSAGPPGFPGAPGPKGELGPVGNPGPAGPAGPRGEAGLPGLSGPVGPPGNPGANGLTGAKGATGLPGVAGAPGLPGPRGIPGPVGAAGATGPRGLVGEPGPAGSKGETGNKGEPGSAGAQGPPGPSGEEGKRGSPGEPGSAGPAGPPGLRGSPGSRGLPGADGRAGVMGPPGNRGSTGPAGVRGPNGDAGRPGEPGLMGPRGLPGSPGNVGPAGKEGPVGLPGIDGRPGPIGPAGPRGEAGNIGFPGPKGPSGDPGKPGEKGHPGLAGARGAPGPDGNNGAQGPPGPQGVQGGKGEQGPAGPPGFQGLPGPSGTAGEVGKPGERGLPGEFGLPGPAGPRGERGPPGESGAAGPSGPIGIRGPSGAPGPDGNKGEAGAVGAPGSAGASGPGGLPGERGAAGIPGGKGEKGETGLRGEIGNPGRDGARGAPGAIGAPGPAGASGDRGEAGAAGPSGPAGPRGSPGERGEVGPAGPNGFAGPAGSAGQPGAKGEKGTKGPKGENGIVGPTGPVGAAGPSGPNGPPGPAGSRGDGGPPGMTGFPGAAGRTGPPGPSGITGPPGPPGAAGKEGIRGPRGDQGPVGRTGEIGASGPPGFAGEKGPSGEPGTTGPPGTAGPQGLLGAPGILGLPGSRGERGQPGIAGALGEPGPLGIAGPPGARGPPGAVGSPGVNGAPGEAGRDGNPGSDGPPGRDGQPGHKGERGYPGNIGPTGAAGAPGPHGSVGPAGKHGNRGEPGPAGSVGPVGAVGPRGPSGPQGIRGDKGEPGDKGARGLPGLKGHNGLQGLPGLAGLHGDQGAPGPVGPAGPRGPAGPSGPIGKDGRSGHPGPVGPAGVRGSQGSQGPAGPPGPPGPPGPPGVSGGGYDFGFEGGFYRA

The first experiment concerns the target T1, human collagen II (human, UniProt P02458 182-1241).
T1 construct: Purified human collagen II (Chondrex #2015), isolated from cartilage; also called huColII; human type II collagen
In words: Biacore binding kinetics. (In general: Surface plasmon resonance follows binding to a sensor surface in real time, without labels.)
On to B1, for which binding was characterised by a dissociation constant (Kd) of 6 nM.
Still for that read-out and setting: with B2 the figure was 50 nM.

For another experiment, the target named is T2, rat collagen II (rat, UniProt P05539 114-1173).
T2 construct: Bought collagen preparation
T2 sequence (P05539 114-1173 limits assumed): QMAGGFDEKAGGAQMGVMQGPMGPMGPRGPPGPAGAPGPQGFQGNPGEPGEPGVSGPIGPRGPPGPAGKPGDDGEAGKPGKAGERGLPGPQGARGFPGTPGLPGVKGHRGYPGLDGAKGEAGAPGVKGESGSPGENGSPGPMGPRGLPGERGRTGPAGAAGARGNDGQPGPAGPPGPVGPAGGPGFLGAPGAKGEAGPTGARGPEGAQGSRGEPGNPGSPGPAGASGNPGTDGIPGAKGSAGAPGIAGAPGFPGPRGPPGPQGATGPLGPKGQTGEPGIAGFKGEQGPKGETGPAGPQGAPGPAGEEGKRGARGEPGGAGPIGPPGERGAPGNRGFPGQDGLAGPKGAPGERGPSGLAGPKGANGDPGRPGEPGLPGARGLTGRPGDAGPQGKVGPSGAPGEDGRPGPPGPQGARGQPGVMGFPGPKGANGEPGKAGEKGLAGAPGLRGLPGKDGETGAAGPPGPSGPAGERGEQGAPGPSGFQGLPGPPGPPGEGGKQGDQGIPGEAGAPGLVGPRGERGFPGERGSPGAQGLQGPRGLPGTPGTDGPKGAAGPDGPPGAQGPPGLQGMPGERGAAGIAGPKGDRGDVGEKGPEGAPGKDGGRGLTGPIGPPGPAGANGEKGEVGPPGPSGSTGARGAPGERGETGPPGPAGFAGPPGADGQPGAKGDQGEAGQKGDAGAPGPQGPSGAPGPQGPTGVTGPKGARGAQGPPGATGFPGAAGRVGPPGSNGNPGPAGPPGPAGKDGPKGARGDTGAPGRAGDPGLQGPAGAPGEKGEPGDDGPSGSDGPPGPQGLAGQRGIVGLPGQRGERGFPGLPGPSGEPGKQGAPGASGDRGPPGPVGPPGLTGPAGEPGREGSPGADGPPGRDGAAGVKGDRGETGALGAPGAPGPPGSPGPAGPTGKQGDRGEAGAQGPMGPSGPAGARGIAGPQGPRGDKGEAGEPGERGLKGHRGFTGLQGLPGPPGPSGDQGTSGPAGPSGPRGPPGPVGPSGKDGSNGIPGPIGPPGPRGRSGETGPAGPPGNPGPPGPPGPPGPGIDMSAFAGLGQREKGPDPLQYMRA
In words: Biacore binding kinetics.
B1: the Kd (as a rule, the free concentration of one partner at which half of the binding sites on the other are occupied at equilibrium, for simple one-to-one binding) worked out at 5 nM.
On the same count and under the same terms, with B2 the figure was 75 nM.

The next experiment concerns the target T1, human collagen II. Put plainly: ELISA, purified Fab 10 ng/ml-10 ug/ml on coated collagen II. As to the method: (§1) Maxisorp ELISA plates (Nunc) were coated with 10 μg/ml human collagen I (Chondrex), human collagen II (Chondrex), rat collagen I (Chondrex), rat collagen II (Chondrex) or with 5 μg/ml human collagen IV (Chemicon) or human collagen V (Chemicon), or with anti-Fd (the Binding Site) at 1 μg/ml, all in PBS, according to manufacturer's instructions. The wells were washed three times in TBST and blocked for one hour with 200 μL 3% milk in TBST. 100 μL of the Fab lysate was added onto the wells of the coated ELISA plates, and incubated 1 hour at room temperature. The wells were washed three times followed by addition of 100 μL of anti-kappa-HRP (Southern Biotech) at 1:5000 in PBS. The plates were incubated at room temperature for one hour, washed three times with TBST, and developed with BM Chemiluminescence ELISA Substrate (Roche Applied Science). The clones that bound to human and rat collagen II without binding to human collagen I, IV or V, or rat collagen I were sequenced and unique clones were further characterized.
EC50 values were obtained for select Fabs using ELISA assay as described above. In the assays, 100 microliters of each Fab was added in a concentration range between 10 ng/ml-10 μg/ml onto the wells.
In general terms: In an ELISA, binding on a coated surface is turned into a signal by an enzyme label.
On to B3, for which a half-maximal effect (EC50) was put at 0.114 µg/mL.
On the same count and under the same terms, the result for B1 reads 0.123 µg/mL; that for B2, 0.113 µg/mL.

Another experiment has as its target T3, rat collagen I (rat, UniProt P02454 152-1207; P02466 86-1125).
T3 construct: Bought collagen preparation
Put plainly: ELISA, plate coated with 10 µg/ml rat collagen I, anti-kappa-HRP, chemiluminescence. As to the method:
as §1
On to B4, for which the binding result is “no binding (tested: not given (100 µL Fab lysate))”.
Still for that read-out and setting: the result for B3 reads “no binding (tested: not given (100 µL Fab lysate))”; that for B5, “no binding (tested: not given (100 µL Fab lysate))”.
Same read-out and setting: with B6 the entry was “no binding (tested: not given (100 µL Fab lysate))”.
Still for that read-out and setting: with B7 the entry was “no binding (tested: not given (100 µL Fab lysate))”; with B2, “no binding (tested: not given (100 µL Fab lysate))”; with B8, “no binding (tested: not given (100 µL Fab lysate))”.
As to B9, the binding result is “no binding (tested: not given (100 µL Fab lysate))”.
In the case of B10, the binding result is on record as “no binding (tested: not given (100 µL Fab lysate))”.

The target in a further experiment is T4, human collagen I (human, UniProt P02452 162-1218; P08123 80-1119).
T4 construct: Bought collagen preparation
Put plainly: ELISA, plate coated with 10 µg/ml human collagen I, anti-kappa-HRP, chemiluminescence. As to the method:
as §1
Turning to B4, the binding result is recorded as “no binding (tested: not given (100 µL Fab lysate))”.
For the molecule B3, the binding result is on record as “no binding (tested: not given (100 µL Fab lysate))”.
The same measure, in the same setting: with B6 the entry was “no binding (tested: not given (100 µL Fab lysate))”; with B2, “no binding (tested: not given (100 µL Fab lysate))”; with B8, “no binding (tested: not given (100 µL Fab lysate))”.
B9: the binding result was “no binding (tested: not given (100 µL Fab lysate))”.
As to B10, the binding result is on record as “no binding (tested: not given (100 µL Fab lysate))”.

For a further experiment, the target named is T2, rat collagen II. In words: ELISA, plate coated with 10 µg/ml rat collagen II, 100 µL Fab lysate, anti-kappa-HRP, chemiluminescence. As to the method: as §1
Turning to B3, the binding result was “binds”.
The same measure, in the same setting: the result for B5 reads “binds”.
Same read-out and setting: with B6 the entry was “binds”.
B7: the binding result is “binds”.
With B11, the binding result is “binds”.
Same read-out and setting: with B8 the entry was “binds”; with B9, “binds”; with B12, “binds”.

The next experiment concerns the target T1, human collagen II. In words: ELISA, plate coated with 10 µg/ml human collagen II, 100 µL Fab lysate, anti-kappa-HRP, chemiluminescence. As to the method:
as §1
Take B5: the binding result was “binds”.
On the same count and under the same terms, the result for B6 reads “binds”.
The same measure, in the same setting: the result for B7 reads “binds”; that for B11, “binds”.
Consider B8, for which the binding result is on record as “binds”.
Still for that read-out and setting: with B9 the entry was “binds”.
On to B12, for which the binding result is “binds”.
